Experimental data: IntAct's records for PubMed 38225382

B1: Peroxisomal biogenesis factor 3 (Homo sapiens), P56589 (parent)
chain: MLRSVWNFLKRHKKKCIFLGTVLGGVYILGKYGQKKIREIQEREAAEYIAQARRQYHFESNQRTCNMTVLSMLPTLREALMQQLNSESLTALLKNRPSNKLEIWEDLKIISFTRSTVAVYSTCMLVVLLRVQLNIIGGYIYLDNAAVGKNGTTILAPPDVQQQYLSSIQHLLGDGLTELITVIKQAVQKVLGSVSLKHSLSLLDLEQKLKEIRNLVEQHKSSSWINKDGSKPLLCHYMMPDEETPLAVQACGLSPRDITTIKLLNETRDMLESPDFSTVLNTCLNRGFSRLLDNMAEFFRPTEQDLQHGNSMNSLSSVSLPLAKIIPIVNGQIHSVCSETPSHFVQDLLTMEQVKDFAANVYEAFSTPQQLEK
partner: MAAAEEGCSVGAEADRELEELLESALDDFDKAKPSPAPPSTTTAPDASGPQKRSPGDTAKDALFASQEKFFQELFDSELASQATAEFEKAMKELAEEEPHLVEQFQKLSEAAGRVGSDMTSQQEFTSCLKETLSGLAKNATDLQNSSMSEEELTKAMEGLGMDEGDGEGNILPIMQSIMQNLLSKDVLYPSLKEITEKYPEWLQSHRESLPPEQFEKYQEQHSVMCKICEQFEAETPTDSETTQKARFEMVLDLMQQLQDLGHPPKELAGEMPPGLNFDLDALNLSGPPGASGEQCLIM
B2: Peroxisomal biogenesis factor 19 (Homo sapiens), P40855 (parent)
chain: B1 partner
B3: Peroxisomal biogenesis factor 3 (Homo sapiens), P56589 (parent)
chain: B1 chain
B4: Estrogen-related receptor gamma (Homo sapiens), P62508-3 (parent)
chain: MSNKDRHIDSSCSSFIKTEPSSPASLTDSVNHHSPGGSSDASGSYSSTMNGHQNGLDSPPLYPSAPILGGSGPVRKLYDDCSSTIVEDPQTKCEYMLNSMPKRLCLVCGDIASGYHYGVASCEACKAFFKRTIQGNIEYSCPATNECEITKRRRKSCQACRFMKCLKVGMLKEGVRLDRVRGGRQKYKRRIDAENSPYLNPQLVQPAKKPLLWSDPADNKIVSHLLVAEPEKIYAMPDPTVPDSDIKALTTLCDLADRELVVIIGWAKHIPGFSTLSLADQMSLLQSAWMEILILGVVYRSLSFEDELVYADDYIMDEDQSKLAGLLDLNNAILQLVKKYKSMKLEKEEFVTLKAIALANSDSMHIEDVEAVQKLQDVLHEALQDYEAGQHMEDPRRAGKMLMTLPLLRQTSTKAVQHFYNIKLEGKVPMHKLFLEMLEAKV
B5: Host cell factor 1 (Homo sapiens), P51610-3 (parent)
chain: MASAVSPANLPAVLLQPRWKRVVGWSGPVPRPRHGHRAVAIKELIVVFGGGNEGIVDELHVYNTATNQWFIPAVRGDIPPGCAAYGFVCDGTRLLVFGGMVEYGKYSNDLYELQASRWEWKRLKAKTPKNGPPPCPRLGHSFSLVGNKCYLFGGLANDSEDPKNNIPRYLNDLYILELRPGSGVVAWDIPITYGVLPPPRESHTAVVYTEKDNKKSKLVIYGGMSGCRLGDLWTLDIDTLTWNKPSLSGVAPLPRSLHSATTIGNKMYVFGGWVPLVMDDVKVATHEKEWKCTNTLACLNLDTMAWETILMDTLEDNIPRARAGHCAVAINTRLYIWSGRDGYRKAWNNQVCCKDLWYLETEKPPPPARVQLVRANTNSLEVSWGAVATADSYLLQLQKYDIPATAATATSPTPNPVPSVPANPPKSL
partner: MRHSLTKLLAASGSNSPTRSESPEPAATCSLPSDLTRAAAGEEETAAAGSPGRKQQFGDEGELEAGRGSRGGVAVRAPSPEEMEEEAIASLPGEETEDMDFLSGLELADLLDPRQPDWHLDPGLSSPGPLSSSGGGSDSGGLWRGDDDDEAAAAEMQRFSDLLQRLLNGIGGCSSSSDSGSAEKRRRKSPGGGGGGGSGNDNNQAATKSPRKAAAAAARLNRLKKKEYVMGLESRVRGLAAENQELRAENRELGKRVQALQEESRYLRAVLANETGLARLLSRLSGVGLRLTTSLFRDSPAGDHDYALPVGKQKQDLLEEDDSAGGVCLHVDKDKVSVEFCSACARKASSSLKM

Variants of: B1
Conditions: with pex19_human PEX19, P40855

Variant | effect of a mutation on the interaction
MLRSVWNFLKRHKKKCIFLGTVLGGVYILGKYGQKKIREIQEREAAEYIAQARRQYHFESNQRTCNMTVLSMLPTLREALMQQLNSESLQALLKNRPSNKLEIWEDLKIISFTRSTVAVYSTCMLVVLLRVQLNIIGGYIYLDNAAVGKNGTTILAPPDVQQQYLSSIQHLLGDGLTELITVIKQAVQKVLGSVSLKHSLSLLDLEQKLKEIRNLVEQHKSSSWINKDGSKPLLCHYMMPDEETPLAVQACGLSPRDITTIKLLNETRDMLESPDFSTVLNTCLNRGFSRLLDNMAEFFRPTEQDLQHGNSMNSLSSVSLPLAKIIPIVNGQIHSVCSETPSHFVQDLLTMEQVKDFAANVYEAFSTPQQLEK [T90Q] | with no effect
MLRSVWNFLKRHKKKCIFLGTVLGGVYILGKYGQKKIREIQEREAAEYIAQARSQYHFESNQRTCNMTVLSMLPTLREALMQQLNSESLTALLKNRPSNKLEIWEDLKIISFTRSTVAVYSTCMLVVLLRVQLNIIGGYIYLDNAAVGKNGTTILAPPDVQQQYLSSIQHLLGDGLTELITVIKQAVQKVLGSVSLKHSLSLLDLEQKLKEIRNLVEQHKSSSWINKDGSKPLLCHYMMPDEETPLAVQACGLSPRDITTIKLLNETRDMLESPDFSTVLNTCLNRGFSRLLDNMAEFFRPTEQDLQHGNSMNSLSSVSLPLAKIIPIVNGQIHSVCSETPSHFVQDLLTMEQVKDFAANVYEAFSTPQQLEK [R54S] | with no effect
MLRSVWNFLKRHKKKCIFLGTVLGGVYILGKYGQKKIREIQEREAAEYIAQARRQYHFESNQRTCNMTVLSMLPTLREALMQQLNSESLTALLKNRPSNKLEIWEDLKIISFTRSTVAVYSTCMLVVLLRVQLNIIGGYIYLDNAAVGKNGTTILAPPDVQQQYLSSIQHLLGDGLTELITVIKQAVQKVLGSVSLKHSLSLLDLEQKLKEIRNLVEQHKSSSWINKDGSKPLLCHYMMPDEETPLAVQACGLSPRDITTIKLLNETRDMLRSPDFSTVLNTCLNRGFSRLLDNMAEFFRPTEQDLQHGNSMNSLSSVSLPLAKIIPIVNGQIHSVCSETPSHFVQDLLTMEQVKDFAANVYEAFSTPQQLEK [E272R] | with no effect

Variants of: B2
Conditions: with pex3_human PEX3, P56589

Variant | effect of a mutation on the interaction
MAAAEEGCSVGAEADRELEELLESALDDKDKAKPSPAPPSTTTAPDASGPQKRSPGDTAKDALFASQEKFFQELFDSELASQATAEFEKAMKELAEEEPHLVEQFQKLSEAAGRVGSDMTSQQEFTSCLKETLSGLAKNATDLQNSSMSEEELTKAMEGLGMDEGDGEGNILPIMQSIMQNLLSKDVLYPSLKEITEKYPEWLQSHRESLPPEQFEKYQEQHSVMCKICEQFEAETPTDSETTQKARFEMVLDLMQQLQDLGHPPKELAGEMPPGLNFDLDALNLSGPPGASGEQCLIM [F29K] | decreasing interaction strength

Variants of: B3
Conditions: with pex16_human PEX16, Q9Y5Y5
pex16_human PEX16, Q9Y5Y5, sequence (Q9Y5Y5 whole entry): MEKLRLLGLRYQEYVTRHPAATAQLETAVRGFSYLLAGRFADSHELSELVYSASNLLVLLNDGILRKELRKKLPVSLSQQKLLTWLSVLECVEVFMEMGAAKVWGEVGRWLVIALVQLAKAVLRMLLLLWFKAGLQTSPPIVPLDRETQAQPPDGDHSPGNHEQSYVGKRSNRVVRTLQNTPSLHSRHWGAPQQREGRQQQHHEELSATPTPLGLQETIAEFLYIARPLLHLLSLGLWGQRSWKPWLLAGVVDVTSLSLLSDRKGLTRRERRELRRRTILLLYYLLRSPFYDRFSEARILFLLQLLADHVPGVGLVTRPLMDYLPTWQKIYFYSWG

Variant | effect of a mutation on the interaction
MLRSVWNFLKRHKKKCIFLGTVLGGVYILGKYGQKKIREIQEREAAEYIAQARSQYHFESNQRTCNMTVLSMLPTLREALMQQLNSESLTALLKNRPSNKLEIWEDLKIISFTRSTVAVYSTCMLVVLLRVQLNIIGGYIYLDNAAVGKNGTTILAPPDVQQQYLSSIQHLLGDGLTELITVIKQAVQKVLGSVSLKHSLSLLDLEQKLKEIRNLVEQHKSSSWINKDGSKPLLCHYMMPDEETPLAVQACGLSPRDITTIKLLNETRDMLESPDFSTVLNTCLNRGFSRLLDNMAEFFRPTEQDLQHGNSMNSLSSVSLPLAKIIPIVNGQIHSVCSETPSHFVQDLLTMEQVKDFAANVYEAFSTPQQLEK [R54S] | decreasing interaction strength
MLRSVWNFLKRHKKKCIFLGTVLGGVYILGKYGQKKIREIQEREAAEYIAQARRQYHFESNQRTCNMTVLSMLPTLREALMQQLNSESLTALLKNRPSNKLEIWEDLKIISFTRSTVAVYSTCMLVVLLRVQLNIIGGYIYLDNAAVGKNGTTILAPPDVQQQYLSSIQHLLGDGLTELITVIKQAVQKVLGSVSLKHSLSLLDLEQKLKEIRNLVEQHKSSSWINKDGSKPLLCHYMMPDEETPLAVQACGLSPRDITTIKLLNETRDMLRSPDFSTVLNTCLNRGFSRLLDNMAEFFRPTEQDLQHGNSMNSLSSVSLPLAKIIPIVNGQIHSVCSETPSHFVQDLLTMEQVKDFAANVYEAFSTPQQLEK [E272R] | decreasing interaction strength

Variants of: B4
Conditions: with prs8_human PSMC5, P62195
prs8_human PSMC5, P62195, sequence (P62195 whole entry): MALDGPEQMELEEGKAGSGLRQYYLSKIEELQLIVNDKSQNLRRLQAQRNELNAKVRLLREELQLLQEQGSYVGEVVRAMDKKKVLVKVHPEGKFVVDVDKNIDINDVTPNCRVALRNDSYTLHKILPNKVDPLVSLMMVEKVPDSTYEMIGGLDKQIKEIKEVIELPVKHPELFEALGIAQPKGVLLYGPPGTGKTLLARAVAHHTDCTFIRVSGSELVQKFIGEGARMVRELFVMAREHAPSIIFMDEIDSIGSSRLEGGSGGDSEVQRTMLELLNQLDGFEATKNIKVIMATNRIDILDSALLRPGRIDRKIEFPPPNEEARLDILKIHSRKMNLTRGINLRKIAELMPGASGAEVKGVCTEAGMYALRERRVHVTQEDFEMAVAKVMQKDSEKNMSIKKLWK

Variant | effect of a mutation on the interaction
MSNKDRHIDSSCSSFIKTEPSSPASLTDSVNHHSPGGSSDASGSYSSTMNGHQNGLDSPPLYPSAPILGGSGPVRKLYDDCSSTIVEDPQTKCEYMLNSMPKRLCLVCGDIASGYHYGVASCEACKAFFKRTIQGNIEYSCPATNECEITKRRRKSCQACRFMKCLKVGMLKEGVRLDRVRGGRQKYKRRIDAENSPYLNPQLVQPAKKPLLWSDPADNKIVSHLLVAEPEKIYAMPDPTVPDSDIKALTTLCDLADRELVVIIGWAKHIPGFSTLSLADQMSLLQSAWMEILILGVVYRSLSFEDELVYADDYIMDEDQSKLAGLLDLNNAILQLVKKYKSMKLEKEEFVTLKAIALANSDSMHIEDVEAVQKLQDVLHEALQDYEAGQHMEDPRRAGKMLMTLPLLRQTSTKAVQHFYNIKLEGKVPMHKLFLEFLEAKV [M437F] | decreasing interaction strength
MSNKDRHIDSSCSSFIKTEPSSPASLTDSVNHHSPGGSSDASGSYSSTMNGHQNGLDSPPLYPSAPILGGSGPVRKLYDDCSSTIVEDPQTKCEYMLNSMPKRLCLVCGDIASGYHYGVASCEACKAFFKRTIQGNIEYSCPATNECEITKRRRKSCQACRFMKCLKVGMLKEGVRLDRVRGGRQKYKRRIDAENSPYLNPQLVQPAKKPLLWSDPADNKIVSHLLVAEPEKIYAMPDPTVPDSDIKALTTLCDLADRELVVIEGWAKHIPGFSTLSLADQMSLLQSAWMEILILGVVYRSLSFEDELVYADDYIMDEDQSKLAGLLDLNNAILQLVKKYKSMKLEKEEFVTLKAIALANSDSMHIEDVEAVQKLQDVLHEALQDYEAGQHMEDPRRAGKMLMTLPLLRQTSTKAVQHFYNIKLEGKVPMHKLFLEMLEAKV [I264E] | decreasing interaction strength

Variants of: B5
Conditions: with zhang_human CREBZF

Variant | effect of a mutation on the interaction
MASAVSPANLPAVLLQPRWKRVVGWSGPVPRPRHGHRAVAIKELIVVFGGGNEGIVDELHVYNTATNQWFIPAVRGDIPPGCAAYGFVCDGTRLLVFGGMVEYGKYSNDLYELQASRWEWKRLKAKTPKNGPPPCPRFGHSFSLVGNKCYLFGGLANDSEDPKNNIPRYLNDLYILELRPGSGVVAWDIPITYGVLPPPRESHTAVVYTEKDNKKSKLVIYGGMSGCRLGDLWTLDIDTLTWNKPSLSGVAPLPRSLHSATTIGNKMYVFGGWVPLVMDDVKVATHEKEWKCTNTLACLNLDTMAWETILMDTLEDNIPRARAGHCAVAINTRLYIWSGRDGYRKAWNNQVCCKDLWYLETEKPPPPARVQLVRANTNSLEVSWGAVATADSYLLQLQKYDIPATAATATSPTPNPVPSVPANPPKSL [L138F] | decreasing interaction strength
